The source of these data is US20170275356A1 (Eli Lilly, published 2017).

Where “and” joins values, the source holds several entries; their conditions need not be identical. Equal entries are not always repeated.

The target in one assay is T1, human IL-35 (human, UniProt P29459 23-219; Q14213 21-229, limits assumed).
T1 construct: subunit make-up is from general knowledge
T1 sequence (looked up) 1: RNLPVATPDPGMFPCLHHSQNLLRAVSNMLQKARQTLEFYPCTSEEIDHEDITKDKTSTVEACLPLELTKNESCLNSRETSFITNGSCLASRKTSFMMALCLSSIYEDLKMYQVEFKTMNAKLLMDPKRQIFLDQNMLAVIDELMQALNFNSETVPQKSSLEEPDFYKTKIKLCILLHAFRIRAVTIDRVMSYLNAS
T1 sequence (looked up) 2: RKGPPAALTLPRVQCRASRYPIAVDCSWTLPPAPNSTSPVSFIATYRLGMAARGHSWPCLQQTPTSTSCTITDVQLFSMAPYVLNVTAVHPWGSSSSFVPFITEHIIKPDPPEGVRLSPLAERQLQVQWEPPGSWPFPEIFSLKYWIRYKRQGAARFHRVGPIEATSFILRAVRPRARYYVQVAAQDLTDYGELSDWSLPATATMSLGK
The experiment in a line: SPR (BIAcore), Antibody I captured on Protein A, 37 °C. As to the method:
(§1) Antibody affinity (KD) to human, cynomolgus monkey or rabbit IL-23 is determined using a BIAcore Biosensor 2000 and BIAevaluation software with a 1:1 binding with mass transfer model. A capture protein (Protein A, Calbiochem) is coupled via free amine groups to carboxyl groups on flow cells 1 and 2 of a CM4 biosensor chip using a mixture of N-ethyl-N-(dimethylaminopropyl)-carbodiimide (EDC) and N-hydroxysuccinimide (NHS). Flow cells are monitored with a flow rate of 80 μL/minute using a buffer containing 0.01 M HEPES, pH 7.4, 150 mM NaCl, 0.005% surfactant P20. Antibody I is captured on flow cell 2 to yield a total of 40 to 60 response units (RU). Multiple cycles of increasing concentrations of IL-23 are then injected over flow cells 1 and 2 (0.62 nM to 30 nM for human and monkey IL-23 and 30 nM to 240 nM for rabbit IL-23) followed by a regeneration step using glycine-HCl (pH 1.5) between each cycle. Flow cell 1 is used as a control to monitor non-specific binding of IL-23 and the data reflects flow cell 2 minus flow cell 1. Each cycle includes an antibody capture step followed by injection of IL-23 at one concentration with a 30 minute dissociation period, then regeneration. Two cycles where buffer is injected in place of IL-23, serve as a control for baseline subtraction and correct for drift associated with the dissociation of Antibody I from the protein A surface. Affinity is measured at 37 ° C. The assay is performed 2 times with human, monkey or rabbit IL-23. Antibody I is tested 2 times each with mouse IL-23 at 333 nM, rat IL-23 at 200 nM, human IL-12 at 333 nM, human IL-27 at 500 nM or human IL-35 at 833 nM.
(§2) Antibody I produces a concentration-dependent binding response with human, cynomolgus monkey, and rabbit IL-23 using this method. Saturation of binding of IL-23 is attained at a concentration of 30 nM (human and monkey) and 240 nM (rabbit) using […] of Antibody I captured on the chip surface.
In general terms: Surface plasmon resonance follows binding to a sensor surface in real time, without labels.

The target of the next assay is T2, human IL-12 (human, UniProt P29459 23-219; P29460 23-328).
T2 construct: construct not described
T2 sequence (looked up) 1: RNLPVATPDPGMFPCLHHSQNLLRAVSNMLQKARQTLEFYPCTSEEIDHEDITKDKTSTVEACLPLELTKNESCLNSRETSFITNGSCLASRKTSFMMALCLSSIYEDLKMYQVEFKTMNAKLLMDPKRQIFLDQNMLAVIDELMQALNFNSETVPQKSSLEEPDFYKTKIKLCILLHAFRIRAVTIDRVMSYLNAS
T2 sequence (looked up) 2: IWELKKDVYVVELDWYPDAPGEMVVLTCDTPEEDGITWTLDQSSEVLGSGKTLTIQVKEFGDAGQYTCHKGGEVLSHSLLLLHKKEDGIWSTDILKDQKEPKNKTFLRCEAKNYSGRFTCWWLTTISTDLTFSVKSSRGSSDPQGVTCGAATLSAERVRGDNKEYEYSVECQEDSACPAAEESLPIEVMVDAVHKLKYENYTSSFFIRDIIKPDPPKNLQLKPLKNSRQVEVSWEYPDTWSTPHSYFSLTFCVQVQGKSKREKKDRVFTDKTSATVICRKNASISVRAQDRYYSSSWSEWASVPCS
Described as above. As to the method:
as §1, §2

The target of a further assay is T3, human IL-27 (human, UniProt Q8NEV9 29-243; Q14213 21-229).
T3 construct: subunit make-up is from general knowledge
T3 sequence (looked up) 1: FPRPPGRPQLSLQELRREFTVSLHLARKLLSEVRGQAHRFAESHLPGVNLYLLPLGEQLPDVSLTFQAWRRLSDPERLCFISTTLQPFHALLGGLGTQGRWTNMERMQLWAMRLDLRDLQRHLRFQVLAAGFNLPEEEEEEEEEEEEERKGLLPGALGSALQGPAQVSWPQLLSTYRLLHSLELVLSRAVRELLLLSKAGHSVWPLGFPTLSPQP
T3 sequence (looked up) 2: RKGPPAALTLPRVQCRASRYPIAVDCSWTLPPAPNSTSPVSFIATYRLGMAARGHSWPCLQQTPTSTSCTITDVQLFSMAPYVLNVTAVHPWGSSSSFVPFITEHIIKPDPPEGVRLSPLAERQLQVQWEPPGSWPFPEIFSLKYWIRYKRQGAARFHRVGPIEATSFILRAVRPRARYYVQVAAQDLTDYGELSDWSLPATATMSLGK
The description is as above. On the procedure: as §1, §2

The next assay addresses T4, mouse IL-23 (mouse, UniProt Q9EQ14 22-196; P43432 23-335).
T4 construct: Construct not described
T4 sequence (looked up) 1: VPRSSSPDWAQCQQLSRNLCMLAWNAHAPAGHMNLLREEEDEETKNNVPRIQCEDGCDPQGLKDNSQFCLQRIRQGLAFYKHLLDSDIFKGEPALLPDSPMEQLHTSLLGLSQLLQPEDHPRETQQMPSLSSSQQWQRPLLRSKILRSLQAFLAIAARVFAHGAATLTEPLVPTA
T4 sequence (looked up) 2: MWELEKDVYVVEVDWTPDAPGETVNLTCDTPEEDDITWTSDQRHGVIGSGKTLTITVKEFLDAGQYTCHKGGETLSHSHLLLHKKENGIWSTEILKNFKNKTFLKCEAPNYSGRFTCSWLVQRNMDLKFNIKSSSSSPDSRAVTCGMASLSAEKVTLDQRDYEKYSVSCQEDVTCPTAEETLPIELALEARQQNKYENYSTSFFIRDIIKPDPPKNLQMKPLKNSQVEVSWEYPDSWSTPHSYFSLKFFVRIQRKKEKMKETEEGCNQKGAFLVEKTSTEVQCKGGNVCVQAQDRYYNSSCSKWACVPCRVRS
The description is as above. On the procedure: as §1, §2

For assay [1], the target named is T5, human IL-23 (human, UniProt P29460 23-328).
T5 sequence 1: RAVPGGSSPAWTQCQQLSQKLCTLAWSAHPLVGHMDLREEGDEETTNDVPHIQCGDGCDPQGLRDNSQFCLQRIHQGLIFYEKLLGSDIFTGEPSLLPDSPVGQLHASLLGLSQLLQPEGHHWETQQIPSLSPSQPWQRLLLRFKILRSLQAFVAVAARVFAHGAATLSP
T5 sequence 2: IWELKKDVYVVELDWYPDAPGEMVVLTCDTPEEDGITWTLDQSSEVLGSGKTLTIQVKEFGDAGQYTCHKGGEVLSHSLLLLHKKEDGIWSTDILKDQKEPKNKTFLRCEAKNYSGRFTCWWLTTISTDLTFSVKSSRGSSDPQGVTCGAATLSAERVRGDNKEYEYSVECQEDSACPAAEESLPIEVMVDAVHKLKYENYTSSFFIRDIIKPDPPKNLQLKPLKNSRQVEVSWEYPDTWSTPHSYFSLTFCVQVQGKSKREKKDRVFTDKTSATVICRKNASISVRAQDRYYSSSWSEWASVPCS
The experiment in a line: cell-based or functional assay.

The target in assay [2] is T5, human IL-23. The experiment in a line: SPR (BIAcore 2000), Antibody I captured on Protein A, IL-23 injected, 37 °C, n=2. On the procedure:
as §1
(§3) The on-rate (kₒₙ) and off-rate (koff) for each antigen are evaluated using a 1:1 binding with mass transfer model. The affinity (KD) is calculated from the binding kinetics according to the relationship: KD=koff/kₒₙ.

A further assay addresses T6, rabbit IL-23 (rabbit).
T6 construct: Construct not described
The assay is described as above. As to the method: as §1, §3

Assay [3] concerns the target T7, cynomolgus monkey IL-23 (cynomolgus monkey).
T7 construct: Construct not described
Described as above. On the procedure:
as §1, §3

For assay [4], the target named is T5, human IL-23. The experiment in a line: cell-based or functional assay. This is another data set of the same source.
Assay [5] has as its target T7, cynomolgus monkey IL-23. The experiment in a line: cell-based or functional assay.

B1: Antibody I (antibody, human IgG4 S228P, kappa, F234A L235A, V domains shown)
VH: QVQLVQSGAEVKKPGSSVKVSCKASGYKFTRYVMHWVRQAPGQGLEWMGYINPYNDGTNYNEKFKGRVTITADKSTSTAYMELSSLRSEDTAVYYCARNWDTGLWGQGTTVTVSS
VL: DIQMTQSPSSLSASVGDRVTITCKASDHILKFLTWYQQKPGKAPKLLIYGATSLETGVPSRFSGSGSGTDFTLTISSLQPEDFATYYCQMYWSTPFTFGGGTKVEIKR
notes: also called IL-23 Antibody
As for B1, the binding result with human IL-35 is reported as “no binding (tested: 833 nM)”; with human IL-12 it was “no binding (tested: 333 nM)”; with human IL-27 it was “no binding (tested: 500 nM)”; in the assay with mouse IL-23, “no binding (tested: 333 nM)”. The “fold induction of murine keratin-16 after human IL-23 injection” value with human IL-23 [1] turned out to be 1.23 fold induction. Besides, the results for the Kd in the assay with human IL-23 [2], with rabbit IL-23 and with cynomolgus monkey IL-23 [3] were 0.021 nM, 53 nM and 0.055 nM, respectively. The koff in the assay with human IL-23 [2] was found to be 5.2e-05 s⁻¹; in the assay with rabbit IL-23 it was 0.00479 s⁻¹; with cynomolgus monkey IL-23 [3] it was 7e-05 s⁻¹. In addition, the kon with human IL-23 [2] was 2.43e+06 M⁻¹ s⁻¹; in the assay with rabbit IL-23, 90000 M⁻¹ s⁻¹; in the assay with cynomolgus monkey IL-23 [3], 1.28e+06 M⁻¹ s⁻¹. For the same molecule, the “IC50 (pM), in vitro IL-23 neutralization assay, IL-17 production by murine splenocytes” value in the assay with human IL-23 [4] is 90 pM and 74 pM; in the assay with cynomolgus monkey IL-23 [5], 110 pM and 130 pM.

One may read the Kd as the equilibrium constant for the complex coming apart. The koff is the rate constant with which the complex falls apart. In general, kon refers to the second-order rate constant of association.
